Reference: paper PMC3695229
Numbering of substitutions follows the chain as printed.

B1: TGFR-3-ZP(234) (domain or fragment)
chain: REPEEVQGGVNIALSVKCDNEKMVVAVDKDSFQTNGYSGMELTLLDPSCKAKMNGTHFVLESPLNGCGTRHRRSAPDGVVYYNSIVVQAPSPGDSSGWPDGYEDLESGDNGFPGDTDEGETAPLSRAGVVVFQCSLRQLRSPSGFQDQLDGQATFNMELYNTDLFLVPSPGVFSVAENEHVYVEVSVTKADQDLGFAIQTCFISPYSNPDRMSDYTIIENICPKDDSVKFYSSKRVHFPIPHAEVDKKRFSFVFKSVFQTSLLFLHCELTLCSRNKGSQKLPKCVTPDDACTSLDATMIWTMMQNKKTFTKPLAVVLQVDYKENVPNMKESSPVPPPPQIFHGLD
modifications: one remaining potential N-glycosylation site (N491)
B2: murine TGFR-3-ZP (recombinant ZP domain of TGF-β receptor type 3, residues 438-782, including the EHP) (domain or fragment)
chain: B1 chain with Q133N, Q152N, Q259N
modifications: secretory glycoprotein; four potential N-glycosylation sites (positions 491, 570, 589 and 696)

Biological target: human TGF-β2 (human)
Assay: SPR; Biacore 2000; biotinylated ligands immobilised on streptavidin-coated CM5 chip, TGFR-3-ZP variants as analytes; 25°C, HBS500 (10 mM HEPES pH 7.4, 500 mM NaCl, 3.4 mM EDTA, 0.005% P20); apparent affinities from equilibrium binding

| Binder | Kd |
| --- | --- |
| B1 | 2700 nM |
| B2 | 2400 nM |
